Assay results from US20140072613A1, “Compositions and Methods for Treating Cutaneous Scarring” (priority 2012, published 2014).

Columns and labels:
Experiment in all cases: cell-based or functional assay
BRK(h) (human) = BRK(h) (human) (UniProt Q13882)
MRCKβ(h) (human) = MRCKβ(h) (human) (UniProt Q9Y5S2)
PKG1α(h) (human) = PKG1α(h) (human) (UniProt Q13976)
Rsk4(h) (human) = Rsk4(h) (human) (UniProt Q9UK32)
GRK6(h) (human) = GRK6(h) (human) (UniProt P43250)
TSSK2(h) (human) = molecular target: T1, TSSK2(h) (human) (UniProt Q96PF2)
T1 sequence (looked up): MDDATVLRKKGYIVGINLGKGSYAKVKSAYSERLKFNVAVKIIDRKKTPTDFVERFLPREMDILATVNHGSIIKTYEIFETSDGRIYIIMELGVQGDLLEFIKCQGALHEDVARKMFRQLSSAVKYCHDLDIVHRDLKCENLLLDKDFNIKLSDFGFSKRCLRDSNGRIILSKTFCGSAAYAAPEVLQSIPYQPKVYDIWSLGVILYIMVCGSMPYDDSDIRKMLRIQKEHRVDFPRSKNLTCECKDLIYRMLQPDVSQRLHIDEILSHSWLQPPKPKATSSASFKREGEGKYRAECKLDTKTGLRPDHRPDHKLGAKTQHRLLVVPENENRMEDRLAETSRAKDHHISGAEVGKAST

PDGFRα(V561D)(h) (human) = PDGFRα(V561D)(h) (human) (UniProt P16234)
EphB4(h) (human) = EphB4(h) (human) (UniProt P54760)
MAPKAP-K2(h) (human) = MAPKAP-K2(h) (human) (UniProt P49137)
CHK2(I157T)(h) (human) = CHK2(I157T)(h) (human) (UniProt O96017)
CaMKIδ(h) (human) = CaMKIδ(h) (human) (UniProt Q8IU85)
Met(Y1248C)(h) (human) = Met(Y1248C)(h) (human) (UniProt P08581)
IRR(h) (human) = IRR(h) (human) (UniProt P14616)
CDK6/cyclinD3(h) (human) = CDK6/cyclinD3(h) (human) (UniProt Q00534)
ULK2(h) (human) = molecular target: T2, ULK2(h) (human) (UniProt Q8IYT8)
T2 sequence (looked up): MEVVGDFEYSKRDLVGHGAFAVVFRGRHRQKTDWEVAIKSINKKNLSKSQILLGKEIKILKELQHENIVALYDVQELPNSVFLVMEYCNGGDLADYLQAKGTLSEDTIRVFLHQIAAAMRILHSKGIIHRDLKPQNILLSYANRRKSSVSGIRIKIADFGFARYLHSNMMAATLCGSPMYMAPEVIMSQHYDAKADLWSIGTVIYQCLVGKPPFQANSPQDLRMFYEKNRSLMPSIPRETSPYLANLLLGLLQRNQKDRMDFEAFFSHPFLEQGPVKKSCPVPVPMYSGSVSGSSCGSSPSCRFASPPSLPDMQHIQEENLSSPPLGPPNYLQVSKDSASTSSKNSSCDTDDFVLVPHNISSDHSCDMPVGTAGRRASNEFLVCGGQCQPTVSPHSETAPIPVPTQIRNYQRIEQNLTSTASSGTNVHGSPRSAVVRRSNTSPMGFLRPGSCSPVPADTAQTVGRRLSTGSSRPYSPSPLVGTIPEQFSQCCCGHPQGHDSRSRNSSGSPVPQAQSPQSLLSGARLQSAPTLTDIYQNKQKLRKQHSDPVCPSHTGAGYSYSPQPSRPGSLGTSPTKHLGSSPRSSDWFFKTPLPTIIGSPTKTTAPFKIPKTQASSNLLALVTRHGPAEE

SAPK2a(h) (human) = SAPK2a(h) (human) (UniProt Q16539)
EphA5(h) (human) = molecular target: T3, EphA5(h) (human) (UniProt P54756)
T3 sequence (looked up): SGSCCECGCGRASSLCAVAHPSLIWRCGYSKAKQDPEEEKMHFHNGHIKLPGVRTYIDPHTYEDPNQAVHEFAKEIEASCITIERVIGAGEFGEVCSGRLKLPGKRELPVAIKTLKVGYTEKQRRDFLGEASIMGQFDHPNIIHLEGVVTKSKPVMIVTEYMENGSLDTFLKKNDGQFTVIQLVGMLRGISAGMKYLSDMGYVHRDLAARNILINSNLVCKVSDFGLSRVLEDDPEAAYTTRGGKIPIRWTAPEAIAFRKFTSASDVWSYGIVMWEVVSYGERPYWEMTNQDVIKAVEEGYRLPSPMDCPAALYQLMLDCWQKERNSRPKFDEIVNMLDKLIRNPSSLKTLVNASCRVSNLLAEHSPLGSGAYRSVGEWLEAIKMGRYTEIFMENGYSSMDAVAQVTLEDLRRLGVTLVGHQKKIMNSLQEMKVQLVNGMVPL

Itk(h) (human) = molecular target: T4, Itk(h) (human) (UniProt Q08881)
T4 sequence (looked up): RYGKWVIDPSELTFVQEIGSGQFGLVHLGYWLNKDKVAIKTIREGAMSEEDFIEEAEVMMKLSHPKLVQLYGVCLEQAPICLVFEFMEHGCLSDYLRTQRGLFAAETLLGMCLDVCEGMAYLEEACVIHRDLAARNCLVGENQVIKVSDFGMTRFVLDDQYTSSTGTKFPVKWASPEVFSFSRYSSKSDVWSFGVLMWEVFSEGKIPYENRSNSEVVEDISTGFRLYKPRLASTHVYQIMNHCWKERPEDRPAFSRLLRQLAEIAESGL

PKBα(h) (human) = PKBα(h) (human) (UniProt P31749)
PKBα(h) (human), sequence (P31749 whole entry): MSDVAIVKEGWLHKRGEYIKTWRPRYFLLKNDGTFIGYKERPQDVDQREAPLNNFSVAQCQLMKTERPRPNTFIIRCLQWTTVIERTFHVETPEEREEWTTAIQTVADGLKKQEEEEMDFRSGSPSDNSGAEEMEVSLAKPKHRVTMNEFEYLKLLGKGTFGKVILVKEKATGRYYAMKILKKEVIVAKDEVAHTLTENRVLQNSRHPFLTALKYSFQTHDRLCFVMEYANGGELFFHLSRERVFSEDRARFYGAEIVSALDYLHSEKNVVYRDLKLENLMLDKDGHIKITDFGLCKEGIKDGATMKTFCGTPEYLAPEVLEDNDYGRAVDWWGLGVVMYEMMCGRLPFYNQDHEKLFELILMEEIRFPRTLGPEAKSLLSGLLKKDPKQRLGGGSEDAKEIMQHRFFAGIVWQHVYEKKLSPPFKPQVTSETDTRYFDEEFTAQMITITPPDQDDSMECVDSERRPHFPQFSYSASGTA

MAPKAP-K2(h) (human), sequence (P49137 46-400 limits assumed): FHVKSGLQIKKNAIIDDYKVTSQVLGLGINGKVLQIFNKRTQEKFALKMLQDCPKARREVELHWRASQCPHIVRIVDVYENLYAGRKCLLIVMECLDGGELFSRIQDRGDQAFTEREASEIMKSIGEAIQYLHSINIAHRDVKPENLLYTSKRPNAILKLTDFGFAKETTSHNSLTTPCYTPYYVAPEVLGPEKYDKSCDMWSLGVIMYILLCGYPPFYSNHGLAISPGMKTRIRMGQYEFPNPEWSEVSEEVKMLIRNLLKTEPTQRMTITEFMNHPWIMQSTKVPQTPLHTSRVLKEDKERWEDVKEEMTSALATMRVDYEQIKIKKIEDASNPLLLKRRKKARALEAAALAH
PDGFRα(V561D)(h) (human), sequence (P16234 550-1089 V561D limits assumed): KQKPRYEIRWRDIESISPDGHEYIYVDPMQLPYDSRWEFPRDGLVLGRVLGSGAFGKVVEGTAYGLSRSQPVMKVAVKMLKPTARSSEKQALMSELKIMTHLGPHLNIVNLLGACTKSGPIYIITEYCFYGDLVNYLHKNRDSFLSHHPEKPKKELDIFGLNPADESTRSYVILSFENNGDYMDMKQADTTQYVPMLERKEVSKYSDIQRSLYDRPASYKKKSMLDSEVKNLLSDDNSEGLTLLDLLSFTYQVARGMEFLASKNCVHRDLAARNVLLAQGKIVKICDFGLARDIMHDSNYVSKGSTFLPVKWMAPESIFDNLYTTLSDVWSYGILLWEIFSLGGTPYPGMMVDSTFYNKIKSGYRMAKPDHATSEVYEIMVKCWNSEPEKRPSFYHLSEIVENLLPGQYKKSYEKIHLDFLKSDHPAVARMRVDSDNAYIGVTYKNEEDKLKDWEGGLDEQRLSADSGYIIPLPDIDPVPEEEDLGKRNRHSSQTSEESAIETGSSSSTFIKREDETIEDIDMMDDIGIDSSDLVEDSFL
SAPK2a(h) (human), sequence (Q16539 whole entry): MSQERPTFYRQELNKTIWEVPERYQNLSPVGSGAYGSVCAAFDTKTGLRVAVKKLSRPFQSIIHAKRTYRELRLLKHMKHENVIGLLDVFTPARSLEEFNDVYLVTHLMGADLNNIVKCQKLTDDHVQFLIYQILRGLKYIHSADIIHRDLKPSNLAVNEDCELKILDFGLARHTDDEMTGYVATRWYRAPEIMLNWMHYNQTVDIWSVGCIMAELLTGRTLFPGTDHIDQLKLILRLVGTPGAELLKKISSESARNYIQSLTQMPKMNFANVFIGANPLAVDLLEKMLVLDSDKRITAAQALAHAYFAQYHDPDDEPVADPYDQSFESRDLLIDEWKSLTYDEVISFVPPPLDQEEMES
Rsk4(h) (human), sequence (Q9UK32 whole entry): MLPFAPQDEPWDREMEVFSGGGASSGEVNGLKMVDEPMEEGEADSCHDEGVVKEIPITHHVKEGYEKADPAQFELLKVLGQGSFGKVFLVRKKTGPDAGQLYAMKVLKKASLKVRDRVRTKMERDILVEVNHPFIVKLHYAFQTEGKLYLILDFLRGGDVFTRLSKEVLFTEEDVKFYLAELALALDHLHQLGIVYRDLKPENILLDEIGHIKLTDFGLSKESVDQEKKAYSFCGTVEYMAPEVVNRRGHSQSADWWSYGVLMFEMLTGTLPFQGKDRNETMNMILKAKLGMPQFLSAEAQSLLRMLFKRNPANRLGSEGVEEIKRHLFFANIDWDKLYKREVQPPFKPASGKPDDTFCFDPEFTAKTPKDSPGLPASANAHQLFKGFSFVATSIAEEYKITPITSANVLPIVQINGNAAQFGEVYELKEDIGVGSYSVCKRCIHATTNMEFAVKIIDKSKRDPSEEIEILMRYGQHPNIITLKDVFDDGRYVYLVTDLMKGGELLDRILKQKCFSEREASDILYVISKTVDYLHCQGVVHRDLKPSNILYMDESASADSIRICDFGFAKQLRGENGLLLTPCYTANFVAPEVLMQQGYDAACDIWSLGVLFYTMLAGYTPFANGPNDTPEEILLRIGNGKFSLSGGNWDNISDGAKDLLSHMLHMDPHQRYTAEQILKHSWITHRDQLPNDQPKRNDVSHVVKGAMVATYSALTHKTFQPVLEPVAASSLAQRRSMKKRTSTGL
PKG1α(h) (human), sequence (Q13976 whole entry): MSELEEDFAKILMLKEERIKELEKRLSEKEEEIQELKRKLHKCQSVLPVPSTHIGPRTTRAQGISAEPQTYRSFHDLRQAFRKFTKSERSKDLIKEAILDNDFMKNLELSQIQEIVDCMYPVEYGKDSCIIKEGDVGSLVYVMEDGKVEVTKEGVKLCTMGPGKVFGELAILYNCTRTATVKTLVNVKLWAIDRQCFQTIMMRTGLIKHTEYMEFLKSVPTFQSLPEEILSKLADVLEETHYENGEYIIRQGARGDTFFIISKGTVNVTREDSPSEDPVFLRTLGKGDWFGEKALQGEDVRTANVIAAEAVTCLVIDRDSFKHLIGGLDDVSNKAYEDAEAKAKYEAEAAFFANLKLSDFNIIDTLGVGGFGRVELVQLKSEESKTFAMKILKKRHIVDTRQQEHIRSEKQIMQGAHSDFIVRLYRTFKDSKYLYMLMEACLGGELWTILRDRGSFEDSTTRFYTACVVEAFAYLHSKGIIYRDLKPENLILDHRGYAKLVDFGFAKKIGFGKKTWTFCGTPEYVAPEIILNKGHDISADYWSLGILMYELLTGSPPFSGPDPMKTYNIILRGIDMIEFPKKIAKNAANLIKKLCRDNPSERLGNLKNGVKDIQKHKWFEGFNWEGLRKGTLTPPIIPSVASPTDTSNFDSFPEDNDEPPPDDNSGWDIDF
CHK2(I157T)(h) (human), sequence (O96017 5-543 I157T limits assumed): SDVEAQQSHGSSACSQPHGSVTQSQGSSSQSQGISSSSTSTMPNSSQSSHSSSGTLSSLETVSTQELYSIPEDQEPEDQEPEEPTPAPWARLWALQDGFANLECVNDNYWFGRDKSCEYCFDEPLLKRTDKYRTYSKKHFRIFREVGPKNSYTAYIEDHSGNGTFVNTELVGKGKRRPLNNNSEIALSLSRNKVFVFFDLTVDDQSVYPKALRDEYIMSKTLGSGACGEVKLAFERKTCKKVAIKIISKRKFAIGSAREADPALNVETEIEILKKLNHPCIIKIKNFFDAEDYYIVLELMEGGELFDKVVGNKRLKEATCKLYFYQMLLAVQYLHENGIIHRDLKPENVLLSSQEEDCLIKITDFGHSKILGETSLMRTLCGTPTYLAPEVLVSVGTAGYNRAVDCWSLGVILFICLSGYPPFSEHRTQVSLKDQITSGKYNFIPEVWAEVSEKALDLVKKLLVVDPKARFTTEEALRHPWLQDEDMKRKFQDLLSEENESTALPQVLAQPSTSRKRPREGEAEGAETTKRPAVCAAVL
GRK6(h) (human), sequence (P43250 whole entry): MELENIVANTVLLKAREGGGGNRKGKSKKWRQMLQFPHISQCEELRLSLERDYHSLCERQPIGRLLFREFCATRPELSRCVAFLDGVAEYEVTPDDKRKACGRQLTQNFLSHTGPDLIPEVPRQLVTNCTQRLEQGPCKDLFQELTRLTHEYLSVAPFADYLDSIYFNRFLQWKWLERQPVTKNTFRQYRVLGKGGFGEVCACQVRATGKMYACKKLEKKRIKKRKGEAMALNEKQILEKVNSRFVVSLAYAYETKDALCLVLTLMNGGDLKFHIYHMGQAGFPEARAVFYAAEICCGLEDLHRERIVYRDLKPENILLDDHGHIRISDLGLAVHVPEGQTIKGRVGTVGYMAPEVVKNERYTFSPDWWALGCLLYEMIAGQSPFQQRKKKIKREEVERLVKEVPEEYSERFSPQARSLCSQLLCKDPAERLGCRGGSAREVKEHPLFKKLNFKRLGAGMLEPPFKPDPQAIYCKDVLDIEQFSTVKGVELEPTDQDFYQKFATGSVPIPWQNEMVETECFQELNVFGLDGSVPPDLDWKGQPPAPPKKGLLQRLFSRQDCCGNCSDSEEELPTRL
CDK6/cyclinD3(h) (human), sequence (Q00534 whole entry, chain 1 of 2): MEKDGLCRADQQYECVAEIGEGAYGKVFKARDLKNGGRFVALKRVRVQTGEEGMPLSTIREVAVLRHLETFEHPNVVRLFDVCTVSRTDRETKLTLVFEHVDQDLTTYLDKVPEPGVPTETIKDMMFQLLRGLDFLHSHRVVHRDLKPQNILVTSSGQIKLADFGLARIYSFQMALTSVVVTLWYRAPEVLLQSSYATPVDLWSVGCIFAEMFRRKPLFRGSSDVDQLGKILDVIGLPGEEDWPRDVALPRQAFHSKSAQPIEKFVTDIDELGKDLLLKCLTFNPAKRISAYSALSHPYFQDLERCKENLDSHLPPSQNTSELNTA
CDK6/cyclinD3(h) (human), sequence (P30281 whole entry, chain 2 of 2, further chain): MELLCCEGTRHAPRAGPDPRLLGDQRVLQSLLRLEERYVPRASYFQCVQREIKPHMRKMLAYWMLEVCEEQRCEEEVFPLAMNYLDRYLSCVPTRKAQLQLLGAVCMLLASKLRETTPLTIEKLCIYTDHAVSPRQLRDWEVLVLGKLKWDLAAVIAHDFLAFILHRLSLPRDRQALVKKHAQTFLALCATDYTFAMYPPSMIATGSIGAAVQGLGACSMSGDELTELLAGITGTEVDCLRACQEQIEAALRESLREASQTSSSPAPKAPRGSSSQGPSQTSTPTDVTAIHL

MMI-0500 (peptide)
% activity, 100 µM (BRK(h) (human)): 41% | % activity, 100 µM (MRCKβ(h) (human)): -10% | % activity, 100 µM (PKG1α(h) (human)): 25% | % activity, 100 µM (Rsk4(h) (human)): 29% | % activity, 100 µM (GRK6(h) (human)): 174% | % activity, 100 µM (TSSK2(h) (human)): 92% | % activity, 100 µM (PDGFRα(V561D)(h) (human)): 146% | % activity, 100 µM (EphB4(h) (human)): 38% | % activity, 100 µM (MAPKAP-K2(h) (human)): 9% | inhibition of kinase activity at 100 µM (MAPKAP-K2(h) (human)): > 65% | % activity, 100 µM (CHK2(I157T)(h) (human)): 3% | % activity, 100 µM (CaMKIδ(h) (human)): 0% | % activity, 100 µM (Met(Y1248C)(h) (human)): 73% | % activity, 100 µM (IRR(h) (human)): 10% | % activity, 100 µM (CDK6/cyclinD3(h) (human)): 23% | % activity, 100 µM (ULK2(h) (human)): 124% | % activity, 100 µM (SAPK2a(h) (human)): 52% | % activity, 100 µM (EphA5(h) (human)): 42% | % activity, 100 µM (Itk(h) (human)): 7% | % activity, 100 µM (PKBα(h) (human)): 30%
